Four molecules from patent publication US20110039770A1 (PHARMAGAP, published 2011) can be followed below.

B1: PRE 12 (peptide)
peptide: Ac-KDAQNLI-NH2
notes: Ac-KDAQNLI-NH2; also called peptide PRE 12
B2: PRE 13 (peptide)
peptide: Ac-RDAQNLI-NH2
notes: Ac-RDAQNLI-NH2; also called peptide PRE 13

T3 sequence (P05771 other isoform, or with tags, fused parts or gaps limits assumed): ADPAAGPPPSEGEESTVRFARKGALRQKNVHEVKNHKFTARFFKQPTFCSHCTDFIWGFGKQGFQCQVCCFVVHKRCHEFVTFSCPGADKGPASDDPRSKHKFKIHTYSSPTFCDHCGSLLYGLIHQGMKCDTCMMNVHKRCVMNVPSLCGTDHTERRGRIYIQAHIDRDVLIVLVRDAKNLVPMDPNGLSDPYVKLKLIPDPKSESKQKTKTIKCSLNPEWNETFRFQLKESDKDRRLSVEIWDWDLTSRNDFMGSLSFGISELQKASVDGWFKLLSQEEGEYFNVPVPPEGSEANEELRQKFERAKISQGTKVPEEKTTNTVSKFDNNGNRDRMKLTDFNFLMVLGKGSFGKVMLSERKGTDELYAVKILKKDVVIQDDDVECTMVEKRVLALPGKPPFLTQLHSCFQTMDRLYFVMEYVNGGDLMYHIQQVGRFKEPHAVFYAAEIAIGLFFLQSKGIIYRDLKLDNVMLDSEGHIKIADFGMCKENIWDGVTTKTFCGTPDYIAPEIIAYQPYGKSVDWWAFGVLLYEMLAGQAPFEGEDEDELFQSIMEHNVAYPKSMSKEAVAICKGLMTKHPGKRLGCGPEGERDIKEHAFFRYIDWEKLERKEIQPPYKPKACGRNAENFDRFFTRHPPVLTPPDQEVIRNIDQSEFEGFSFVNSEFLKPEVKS

For one assay, the target named is T1, PKC-δ (purified isoform).
T1 construct: also called PKC-delta
T1 sequence (Q05655 whole entry, stated change not applied, canonical isoform): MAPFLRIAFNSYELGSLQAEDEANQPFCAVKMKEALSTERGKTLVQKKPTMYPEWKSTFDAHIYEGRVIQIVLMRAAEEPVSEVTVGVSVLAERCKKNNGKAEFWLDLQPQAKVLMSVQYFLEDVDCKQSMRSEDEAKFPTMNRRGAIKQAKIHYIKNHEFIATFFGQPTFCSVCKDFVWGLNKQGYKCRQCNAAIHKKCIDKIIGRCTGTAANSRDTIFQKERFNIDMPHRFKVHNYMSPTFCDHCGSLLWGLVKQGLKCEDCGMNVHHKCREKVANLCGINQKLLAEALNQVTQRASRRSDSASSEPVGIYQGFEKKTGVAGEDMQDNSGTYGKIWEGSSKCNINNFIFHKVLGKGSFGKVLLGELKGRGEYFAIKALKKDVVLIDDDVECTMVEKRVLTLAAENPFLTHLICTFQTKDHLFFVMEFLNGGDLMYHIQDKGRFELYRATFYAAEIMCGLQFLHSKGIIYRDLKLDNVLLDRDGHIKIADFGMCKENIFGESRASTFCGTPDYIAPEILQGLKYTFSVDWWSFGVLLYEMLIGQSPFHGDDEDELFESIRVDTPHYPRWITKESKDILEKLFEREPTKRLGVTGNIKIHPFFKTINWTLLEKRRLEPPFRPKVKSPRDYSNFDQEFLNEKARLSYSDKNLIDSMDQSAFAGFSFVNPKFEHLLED
The assay can be described thus: competitive ELISA, coated purified PKC-δ, vs anti-PKC δ (SC-213); PRE 200 µM. The protocol: (§1) Greiner 96 well ELISA plates were coated with the appropriate PKC isoform diluted in PBSN (PBS with Calcium/Magnesium+0.05% Sodium azide w/w). 50 μL/well at 250 ng/mL was used. Control wells contained PBSN only. Plates were incubated overnight at 4° C.
(§2) The plates were washed 3 times with 200 μL of dH₂O per well, then 100 μL of blocking solution was added per well and the plate incubated for 1 h at 37° C. The washing steps with dH₂O were repeated and 50 μL of the appropriate PRE solution (PRE stock solution [20 mM in DMSO] diluted in PBSN) was added and the plate incubated for 1 h at room temperature.
(§3) 50 μL of 1:1000 dilution of Alkaline Phosphatase (AP) conjugated antibody (anti-rabbit for all except zeta, which was anti-goat) was then added and the plate incubated for 1 h at room temperature. Washing with dH₂O was then repeated. Finally, 100 μL of pNPP solution in pNPP buffer (2 mM MgCl₂, 100 mM Sodium bicarbonate in water, pH 9.8) was added to all wells and incubated for 8 minutes for α, βI, βII ε, and ζ, or for 15-20 mins for δ (until sufficient coloration is observed). The reaction was stopped by addition of Stop solution (2N NaOH) and the absorbance at 405 nm was read on a Galaxy Plate reader.
Turning to Ac-AKGIQEVKGGKDAQNLIGISI-NH2 (also called peptide PRE 5) [PRE 5], the “relative binding capacity (100-%n, DMSO subtracted)” value was 4.31%.

In the case of B1, the “relative binding capacity (100-%n, DMSO subtracted)” value was 23.5%.

Regarding B2, the “relative binding capacity (100-%n, DMSO subtracted)” value turned out to be 17.9%.

As to Ac-ISIGILNQADK-NH2 (also called peptide PRE 10) [PRE 10], the “relative binding capacity (100-%n, DMSO subtracted)” value was 9.47%.

A further assay concerns the target T2, PKC-α (purified isoform) (Homo sapiens (Human), UniProt P17252 2-672).
T2 construct: also called purified PKC-alpha; commercially purified PKC-alpha
Put plainly: competitive ELISA, coated purified PKC-α, vs anti-PKC α (SC-208); PRE 200 µM. The protocol: as §1, §2, §3
With Ac-AKGIQEVKGGKDAQNLIGISI-NH2 (also called peptide PRE 5) [PRE 5], the “relative binding capacity (100-%n, DMSO subtracted)” value worked out at 0%.

For the molecule B1, the “relative binding capacity (100-%n, DMSO subtracted)” value was found to be 0%.

Turning to B2, the “relative binding capacity (100-%n, DMSO subtracted)” value was 0%.

With Ac-ISIGILNQADK-NH2 (also called peptide PRE 10) [PRE 10], the “relative binding capacity (100-%n, DMSO subtracted)” value was 0%.

Another assay has as its target T3, PKC-βII (purified isoform) (Homo sapiens (Human), UniProt P05771 2-621).
T3 construct: also called PKC-beta II; PKC beta 2
Put plainly: competitive ELISA, coated purified PKC-βII, vs anti-PKC βII (SC-210); PRE 200 µM. The protocol: as §1, §2, §3
With Ac-AKGIQEVKGGKDAQNLIGISI-NH2 (also called peptide PRE 5) [PRE 5], the “relative binding capacity (100-%n, DMSO subtracted)” value amounted to 0%.

Regarding B1, the “relative binding capacity (100-%n, DMSO subtracted)” value was 0%.

B2: the “relative binding capacity (100-%n, DMSO subtracted)” value turned out to be 0%.

As for Ac-ISIGILNQADK-NH2 (also called peptide PRE 10) [PRE 10], the “relative binding capacity (100-%n, DMSO subtracted)” value amounted to 0%.

In a further assay the target is T2, PKC-α (purified isoform). The assay can be described thus: competitive ELISA, coated purified PKC-α, vs anti-PKC α (SC-208); PRE 50 µM. The protocol: as §1, §2, §3
In the case of Ac-AKGIQEVKGGKDAQNLIGISI-NH2 (also called peptide PRE 5) [PRE 5], the “relative binding capacity (100-%n, DMSO subtracted)” value was found to be 0%.

With B1, the “relative binding capacity (100-%n, DMSO subtracted)” value amounted to 3.29%.

For B2, the “relative binding capacity (100-%n, DMSO subtracted)” value is 0%.

Regarding Ac-ISIGILNQADK-NH2 (also called peptide PRE 10) [PRE 10], the “relative binding capacity (100-%n, DMSO subtracted)” value is 0%.

The next assay has as its target T3, PKC-βII (purified isoform). The assay can be described thus: competitive ELISA, coated purified PKC-βII, vs anti-PKC βII (SC-210); PRE 100 µM. The protocol:
as §1, §2, §3
Turning to Ac-AKGIQEVKGGKDAQNLIGISI-NH2 (also called peptide PRE 5) [PRE 5], the “relative binding capacity (100-%n, DMSO subtracted)” value was 0%.

As for B1, the “relative binding capacity (100-%n, DMSO subtracted)” value was 0%.

Take B2: the “relative binding capacity (100-%n, DMSO subtracted)” value stood at 1.63%.

As to Ac-ISIGILNQADK-NH2 (also called peptide PRE 10) [PRE 10], the “relative binding capacity (100-%n, DMSO subtracted)” value is 0%.

For another assay, the target named is T4, PKC-βI (purified isoform) (Homo sapiens (Human), UniProt P05771 2-671).
T4 construct: also called PKC-beta I; PKC beta 1
T4 sequence (P05771 2-671 limits assumed): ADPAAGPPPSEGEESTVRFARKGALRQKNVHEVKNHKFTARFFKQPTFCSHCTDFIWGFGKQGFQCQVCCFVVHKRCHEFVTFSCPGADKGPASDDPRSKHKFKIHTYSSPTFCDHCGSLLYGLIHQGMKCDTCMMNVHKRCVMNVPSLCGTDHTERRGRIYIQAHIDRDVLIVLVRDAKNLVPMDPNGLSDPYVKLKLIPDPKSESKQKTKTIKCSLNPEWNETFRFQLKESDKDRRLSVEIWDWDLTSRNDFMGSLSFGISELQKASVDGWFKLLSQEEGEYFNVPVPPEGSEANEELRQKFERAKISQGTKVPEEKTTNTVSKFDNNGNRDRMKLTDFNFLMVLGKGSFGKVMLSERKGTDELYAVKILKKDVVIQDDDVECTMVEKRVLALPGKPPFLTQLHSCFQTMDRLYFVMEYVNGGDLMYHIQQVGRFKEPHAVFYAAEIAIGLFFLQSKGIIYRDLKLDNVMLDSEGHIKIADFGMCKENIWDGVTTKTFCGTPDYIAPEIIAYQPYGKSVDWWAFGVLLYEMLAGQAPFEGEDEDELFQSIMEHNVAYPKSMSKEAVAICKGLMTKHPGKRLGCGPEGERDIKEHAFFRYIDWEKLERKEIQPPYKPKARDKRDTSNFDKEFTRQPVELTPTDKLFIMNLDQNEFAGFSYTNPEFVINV
The assay can be described thus: competitive ELISA, coated purified PKC-βI, vs anti-PKC βI (SC-209); PRE 200 µM. The procedure:
as §1, §2, §3
For Ac-AKGIQEVKGGKDAQNLIGISI-NH2 (also called peptide PRE 5) [PRE 5], the “relative binding capacity (100-%n, DMSO subtracted)” value was 0%.

Consider B1, for which the “relative binding capacity (100-%n, DMSO subtracted)” value came to 0%.

Regarding B2, the “relative binding capacity (100-%n, DMSO subtracted)” value amounted to 0%.

Consider Ac-ISIGILNQADK-NH2 (also called peptide PRE 10) [PRE 10], for which the “relative binding capacity (100-%n, DMSO subtracted)” value came to 0%.

A further assay addresses T4, PKC-βI (purified isoform). Put plainly: competitive ELISA, coated purified PKC-βI, vs anti-PKC βI (SC-209); PRE 50 µM. The protocol:
as §1, §2, §3
As to Ac-AKGIQEVKGGKDAQNLIGISI-NH2 (also called peptide PRE 5) [PRE 5], the “relative binding capacity (100-%n, DMSO subtracted)” value was 0%.

On to B1, for which the “relative binding capacity (100-%n, DMSO subtracted)” value is 0.79%.

Consider B2, for which the “relative binding capacity (100-%n, DMSO subtracted)” value came to 0%.

Regarding Ac-ISIGILNQADK-NH2 (also called peptide PRE 10) [PRE 10], the “relative binding capacity (100-%n, DMSO subtracted)” value came out at 3.77%.

The target in the next assay is T1, PKC-δ (purified isoform). The assay can be described thus: competitive ELISA, coated purified PKC-δ, vs anti-PKC δ (SC-213); PRE 50 µM. The procedure:
as §1, §2, §3
With Ac-AKGIQEVKGGKDAQNLIGISI-NH2 (also called peptide PRE 5) [PRE 5], the “relative binding capacity (100-%n, DMSO subtracted)” value is 0.2%.

As to B1, the “relative binding capacity (100-%n, DMSO subtracted)” value turned out to be 2.26%.

For the molecule B2, the “relative binding capacity (100-%n, DMSO subtracted)” value was determined as 0%.

Regarding Ac-ISIGILNQADK-NH2 (also called peptide PRE 10) [PRE 10], the “relative binding capacity (100-%n, DMSO subtracted)” value worked out at 0%.

The target of another assay is T1, PKC-δ (purified isoform). The assay can be described thus: competitive ELISA, coated purified PKC-δ, vs anti-PKC δ (SC-213); PRE 100 µM. The protocol:
as §1, §2, §3
For Ac-AKGIQEVKGGKDAQNLIGISI-NH2 (also called peptide PRE 5) [PRE 5], the “relative binding capacity (100-%n, DMSO subtracted)” value amounted to 0%.

In the case of B1, the “relative binding capacity (100-%n, DMSO subtracted)” value came out at 1.02%.

For B2, the “relative binding capacity (100-%n, DMSO subtracted)” value was 0.79%.

In the case of Ac-ISIGILNQADK-NH2 (also called peptide PRE 10) [PRE 10], the “relative binding capacity (100-%n, DMSO subtracted)” value was determined as 0%.

The next assay has as its target T2, PKC-α (purified isoform). The assay can be described thus: competitive ELISA, coated purified PKC-α, vs anti-PKC α (SC-208); PRE 100 µM. The protocol: as §1, §2, §3
For the molecule Ac-AKGIQEVKGGKDAQNLIGISI-NH2 (also called peptide PRE 5) [PRE 5], the “relative binding capacity (100-%n, DMSO subtracted)” value was 0%.

B1: the “relative binding capacity (100-%n, DMSO subtracted)” value is 5.16%.

Consider B2, for which the “relative binding capacity (100-%n, DMSO subtracted)” value was 0%.

In the case of Ac-ISIGILNQADK-NH2 (also called peptide PRE 10) [PRE 10], the “relative binding capacity (100-%n, DMSO subtracted)” value stood at 0%.

The target of a further assay is T4, PKC-βI (purified isoform). The assay can be described thus: competitive ELISA, coated purified PKC-βI, vs anti-PKC βI (SC-209); PRE 100 µM. The procedure: as §1, §2, §3
For the molecule Ac-AKGIQEVKGGKDAQNLIGISI-NH2 (also called peptide PRE 5) [PRE 5], the “relative binding capacity (100-%n, DMSO subtracted)” value stood at 0%.

For B1, the “relative binding capacity (100-%n, DMSO subtracted)” value came out at 0%.

With B2, the “relative binding capacity (100-%n, DMSO subtracted)” value worked out at 0%.

In the case of Ac-ISIGILNQADK-NH2 (also called peptide PRE 10) [PRE 10], the “relative binding capacity (100-%n, DMSO subtracted)” value amounted to 4.35%.

A further assay has as its target T3, PKC-βII (purified isoform). Put plainly: competitive ELISA, coated purified PKC-βII, vs anti-PKC βII (SC-210); PRE 50 µM. The procedure: as §1, §2, §3
As for Ac-AKGIQEVKGGKDAQNLIGISI-NH2 (also called peptide PRE 5) [PRE 5], the “relative binding capacity (100-%n, DMSO subtracted)” value amounted to 0%.

For B1, the “relative binding capacity (100-%n, DMSO subtracted)” value amounted to 4.55%.

On to B2, for which the “relative binding capacity (100-%n, DMSO subtracted)” value was 0%.

Ac-ISIGILNQADK-NH2 (also called peptide PRE 10) [PRE 10]: the “relative binding capacity (100-%n, DMSO subtracted)” value came to 0%.
